According to patent US5891697A, “Monoterpene synthases from common sage (Salvia officinalis)” (Washington State University Research Foundation, priority 1997, dated 1999):

Experiments:
[1] = molecular target: native 1,8-cineole synthase from sage (Salvia officinalis) (Salvia officinalis, UniProt O81191); conditions: read-out: Km (geranyl diphosphate), literature value; native enzyme; Croteau et al., Arch. Biochem. Biophys. 309:184-192, 1994; cited from earlier work
[2] = molecular target: T1, native (+)-bornyl diphosphate synthase from sage (Salvia officinalis) (Salvia officinalis, UniProt O81192); conditions: read-out: Km (geranyl diphosphate), literature value; native enzyme; Croteau et al. 1989, 1990; cited from earlier work
T1 construct: for the corresponding native enzymes

[3] = molecular target: the molecule itself; experiment: calibrated gel permeation chromatography (Superdex S-200); single peak of activity at Mr ~200,000; self-association (homodimer)
[4] = molecular target: the molecule itself; experiment: gel permeation re-chromatography after thrombin removal of the GST tag; self-association (homodimer)
[5] = substrate: CC(C)=CCC/C(C)=C/COP(=O)(O)OP(=O)(O)O; experiment: cells, lysate or membranes named; conditions: other: recombinant SCS; 0.45 to 45 μM [1-3H]geranyl diphosphate, saturating divalent metal ion; likely somewhat high (contaminating phosphatases); pH 6.0; 31.0 °C

Molecule: CC(C)=CCC/C(C)=C/COP(=O)(O)OP(=O)(O)O [geranyl diphosphate]
- Km [1]: 1.1 µM
- Km [2]: 2 µM

B1: pGEX fusion form of SBS (glutathione-S-transferase fusion of the sage (+)-bornyl diphosphate synthase preprotein) (enzyme)
chain: MSIISMNVSILSKPLNCLHNLERRPSKALLVPCTAPTARLRASCSSKLQEAHQIRRSGNYQPALWDSNYIQSLNTPYTEERHLDRKAELIVQVRILLKEKMEPVQQLELIHDLKYLGLSDFFQDEIKEILGVIYNEHKCFHNNEVEKMDLYFTALGFRLLRQHGFNISQDVFNCFKNEKGIDFKASLAQDTKGMLQLYEASFLLRKGEDTLELAREFATKCLQKKLDEGGNEIDENLLLWIRHSLDLPLHWRIQSVEARWFIDAYARRPDMNPLIFELAKLNFNIIQATHQQELKDLSRWWSRLCFPEKLPFVRDRLVESFFWAVGMFEPHQHGYQRKMAATIIVLATVIDDIYDVYGTLDELELFTDTFKRWDTESITRLPYYMQLCYWGVHNYISDAAYDILKEHGFFCLQYLRKSVVDLVEAYFHEAKWYHSGYTPSLDEYLNIAKISVASPAIISPTYFTFANASHDTAVIDSLYQYHDILCLAGIILRLPDDLGTSYFELARGDVPKTIQCYMKETNASEEEAVEHVKFLIREAWKDMNTAIAAGYPFPDGMVAGAANIGRVAQFIYLHGDGFGVQHSKTYEHIAGLLFEPYA
- binding result [3]: binds

B2: SBS protein after thrombin removal of the glutathione-S-transferase fusion tag ((+)-bornyl diphosphate synthase preprotein) (enzyme)
chain: B1 chain
- binding result [4]: binds

B3: Salvia officinalis 1,8-cineole synthase (SCS), recombinant, clone 3B5, SEQ ID No:4 (Salvia officinalis) (protein)
chain: RRTGGYQPTLWDFSTIQLFDSEYKEEKHLMRAAGMIAQVNMLLQEEVDSIQRLELIDDLRRLGISCHFDREIVEILNSKYYTNNEIDESDLYSTALRFKLLRQYDFSVSQEVFDCFKNDKGTDFKPSLVDDTRGLLQLYEASFLSAQGEETLHLARDFATKFLHKRVLVDKDINLLSSIERALELPTHWRVQMPNARSFIDAYKRRPDMNPTVLELAKLDFNMVQAQFQQELKEASRWWNSTGLVHELPFVRDRIVECYYWTTGVVERREHGYERIMLTKINALVTTIDDVFDIYGTLEELQLFTTAIQRWDIESMKQLPPYMQICYLALFNFVNEMAYDTLRDKGFNSTPYLRKAWVDLVESYLIEAKWYYMGHKPSLEEYMKNSWISIGGIPILSHLFFRLTDSIEEEDAESMHKYHDIVRASCTILRLADDMGTSLDEVERGDVPKSVQCYMNEKNASEEEAREHVRSLIDQTWKMMNKEMMTSSFSKYFVQVSANLARMAQWIYQHESDGFGMQHSLVNKMLRGLLFDRYE
- Km [5]: 7.0 µM
